# Patent US20260224754A1, “ORAL FORMULATION TO ENSURE BIOAVAILABILITY OF PEPTIDE, PROTEIN, AND NUCLEIC ACID THERAPEUTICS” (THE TRUSTEES OF COLUMBIA UNIVERSITY IN THE CITY OF NEW YORK, priority 2023, published 2026)
# B1: LCN2: bone-derived hormone, also known as oncogene 24p3 or neutrophil gelatinase-associated lipocalin (protein, UniProt P80188 21-198, looked up)
# Neutrophil …: QDSTSDLIPAPPLSKVPLQQNFQDNQFQGKWYVVGLAGNAILREDKDPQKMYATIYELKEDKSYNVTSVLFRKKKCDYWIRTFVPGCQPGEFTLGNIKSYPGLTSYLVRVVSTNYNQHAMVFFKKVSQNREYFKITLYGRTKELTSELKENFIRFSKSLGLPENHIVFPVPIDQCIDG
# Assays:
# C2C12 cells = assay: gene expression and PKA/cAMP in C2C12 cells treated with recombinant LCN2; type: cell-based, mouse
# Experimental: (§1) Mean±SEM. *, P<0.05, Student's t test.
# FIG. 37 show relative expression levels (fold over vehicle) of AcylcoA, Mcad and Ucp2 in C2C12 cells treated with increasing concentrations of recombinant Lcn2 for 4 h. Mean±SEM. *, P<0.05, Student's t test.
# The in vivo results were confirmed in vitro. […] FIG. 40 summarizes how LCN2 regulate lean body mass with an increase in myogenesis and energy expenditure.
# muscles of WT male mice = assay: muscle gene expression in WT mice treated with recombinant LCN2; type: in vivo
# Description: as §1
# FIGS. 32A-32B show relative expression levels (fold over vehicle) of MyHCIIa and MyHCIIb in EDL of 12-week-old male Lcn2osb−/− or WT littermates (FIG. 32A) or 8-week-old WT male mice treated with the indicated doses of recombinant Lcn2 or vehicle (n=6/group) for 16 weeks (FIG. 32B). Mean±SEM. *, P<0.05, Student's t test.
# FIGS. 34A-34B show relative expression levels (fold over vehicle) of the indicated genes in tibialis anterior of 12-week-old male Lcn2osb−/− or WT littermates (FIG. 34A) or 8-week-old WT male mice treated with 150 ng/g/day recombinant Lcn2 (n=7) or vehicle (n=8) for 16 weeks (FIG. 34B). Mean±SEM. *, P<0.05, Student's t test.
# Regarding muscle function, LCN2 is required to maintain lean mass and endurance. […] Endurance measured as exercise distance of 6-month old LCN2−/− and WT littermates individually housed in cages equipped with voluntary running wheels and recorded for 14 days following a 7-day acclimation is shown in FIG. 28B. The increase in energy expenditure of overexpressed LCN2 can be explained in part from the increase in lean body mass, which is correlated to basal metabolic rate. […] Myogenic regulatory factors, namely myf5, mrf4, myoD and myoG. are transcription factors that regulate myogenesis. In the knockout mice, these myogenic factors either decreased or had little change though seems to trend to decrease.
# Furthermore, the effect was studied in the specific type of type two muscle fiber. Type IIb is the classical fast twitch, white meat, glycolytic fiber type, whereas type IIa is still considered fast twitch but with oxidative capacity. It is considered in between an in between muscle fiber type between type 1, which are the slow twitch, red meat, oxidative muscle fiber, and classic type IIB. […] Both type II fibers are fast twitch, primarily glycolytic muscle fibers, but the type A ones are characterized by more mitochondria and seem to be more oxidative. […]
molecule,measurement,setting,value
B1,expression of genes associated with beta-oxidation,C2C12 cells; 4 h,increase in the expression of genes associated with B-oxidation
same,"expression of genes that promote mitochondrial biogenesis (NRF1, Pgc1a)",C2C12 cells; 4 h,increases the expression of genes that promote mitochondrial biogenesis
same,expression of genes that promote myogenesis,C2C12 cells; 4 h,increases the expression of genes that promote myogenesis
same,PKA/cAMP activity,C2C12 cells; Western blot and ELISA,induces PKA/cAMP activity
same,myosin heavy chain type IIa versus type IIb,"muscles of WT male mice; EDL, WT male mice, 16 weeks",increases the amount of myosin heavy chain type IIa compared to type IIb
same,"expression of myogenic regulatory factors (myf5, mrf4, myoD, myoG)",muscles of WT male mice; male WT mice treated with LCN2,at least a twofold increase in all myogenic regulatory factors
same,expression of mitochondrial genes,"muscles of WT male mice; tibialis anterior, WT mice treated with LCN2",increase in these mitochondrial genes
